# Data as given in publication PMC8541144, “Synthesis, Characterization and In Vitro Evaluation of Hybrid Monomeric Peptides Suited for Multimodal Imaging by PET/OI: Extending the Concept of Charge—Cell Binding Correlation” (Pharmaceuticals, 2021).
# Legend:
# [1] = LogD determination: partition between 1-octanol and phosphate buffer pH 7.4
# Experimental: In the following, the lipophilicity of the labeled conjugates was investigated to get a first idea of the potential excretion pathway of the agents during an in vivo application. The logD values were determined by partition experiments between n-octanol and aqueous solution at pH 7.4.
# The mixtures were intensively shaken for 5 min on a vibrating plate. After subsequent centrifugation at 13,000 rpm for 5 min, 125 µL were taken from each phase and measured in a γ-counter. The logD values were calculated from three or four independent experiments, each performed in triplicate.
# GRPR = molecular target: T1, GRPR (Homo sapiens, UniProt P30550); experiment: Competitive displacement assay on stably GRPR-transfected HEK-293 cells, [125I]I-Tyr4-bombesin as competitor; type: binding; conditions: GRPR-expressing HEK cells, mean ± SD
# T1 construct: host or cells: HEK-293 (HEK-GRPR), stably transfected
# T1 sequence (P30550 whole entry, species assumed): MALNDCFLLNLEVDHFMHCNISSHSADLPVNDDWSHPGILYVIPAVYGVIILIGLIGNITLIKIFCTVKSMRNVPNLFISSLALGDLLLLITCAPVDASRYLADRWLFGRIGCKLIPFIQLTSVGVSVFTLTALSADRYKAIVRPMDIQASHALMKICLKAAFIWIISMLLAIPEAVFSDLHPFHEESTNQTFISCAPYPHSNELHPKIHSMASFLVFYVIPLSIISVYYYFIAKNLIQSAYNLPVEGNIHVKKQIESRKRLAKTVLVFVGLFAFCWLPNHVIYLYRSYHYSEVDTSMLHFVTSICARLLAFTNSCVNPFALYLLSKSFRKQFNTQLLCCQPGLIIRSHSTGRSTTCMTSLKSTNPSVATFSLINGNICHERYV
# Experimental: Each compound was evaluated at least three times, each experiment being performed in triplicate. […] The respective cells were harvested and re-suspended in the binding buffer to give a cell concentration of 2 × 10^6/mL. […] Using a Millipore MultiScreen disposable punch and a Millipore MultiScreen punch kit, the filters of the well plate were collected in γ-counter tubes separately and measured by γ-counting.
smiles,measurement,setting,value
"CSCC[C@H](NC(=O)[C@H](CC(C)C)NC(=O)[C@H](Cc1c[nH]cn1)NC(=O)CNC(=O)[C@@H](NC(=O)[C@H](C)NC(=O)[C@H](Cc1c[nH]c2ccccc12)NC(=O)[C@H](CCC(N)=O)NC(=O)CCOCCOCCOCCOCCNC(=O)CCCN1C(=O)CC(SC[C@H](NC(=O)CNC(=O)CC[C@H](C(=O)O)N2CCN(CC(=O)O)CCN(CC(=O)O)CC2)C(N)=O)C1=O)C(C)C)C(N)=O (some centres unmarked) [10 a, BBN7-14-NODA-GA]",logD,[1],-3.78 ± 0.04
same,IC50,GRPR,19.1 ± 1.44 nM
